doi:10.1101/2020.11.06.371997

B1: TTAGGG2 duplex (dsDNA)
DNA 1: GGTTAGGGTTAG
DNA 2: CTAACCCTAACC
B2: TTAGGG4 duplex (dsDNA)
DNA 1: TTAGGGTTAGGGTTAGGGTTAGGG
DNA 2: CCCTAACCCTAACCCTAACCCTAA

Assays:
Trf2ΔN-FG3 (UmTrf2) [1] = target: T1, Trf2ΔN-FG3 (UmTrf2) (Ustilago maydis, UniProt A0A0D1E1Z3 415-1528); assay: EMSA
Trf2ΔN-FG3 (UmTrf2) [2] = target: T1, Trf2ΔN-FG3 (UmTrf2); assay: EMSA; remark: listed apart in the source

Binder | binding result (Trf2ΔN-FG3 (UmTrf2) [1]) | Kd (Trf2ΔN-FG3 (UmTrf2) [2]) [nM]
B1 | no binding | 
B2 |  | 20
